Assay results published in PMC8274395 (Biochemistry, 2021).

Target: the molecule itself
Test: crystal structure

B1: Cj1441, UDP-glucose 6-dehydrogenase from Campylobacter jejuni NCTC 11168 (enzyme)
chain: MKIVIVGIGYVGLANAILFSKNNENEVVLLDIDENKIQSINNHKSPIKDKLIEKFFVQNISKLHATSNIKEAYFNADFAVIATPTDYDEQLNFFDTRSIENVLKDIKNINSKINVIIKSTVPIGYTKTIKQKFNMSNIVFSPEFLREGSALYDSLYPSRIIIGDKSVLGKTIGDLFLKNIEKKNVDIFYMDSDEAESVKLFSNTYLAMRVGFFNEVDSYARKHNLNSADIIKGISADDRIGKYYNNPSFGYGGYCLPKDTKQLLANFYNIPNSLIKAIVETNEIRKKFITQLILEKKPNILGIYRLIMKQNSDNFRNSVIIDIIKYLQEYNSNIELIIYEPLVKEKKFLNIKVENDFNVFGAKVDLIIANRFDDKLKEIKDKVFSADVFYTDI
B1: binds.
